US20180256644A1
Numbering of substitutions follows the chain as printed. Names and notes keep the numbering of the source.

Tests used:
[1] = target: human CD28 (full-length, expressed on transfected Expi293F cells) (human) (UniProt P10747); assay: flow cytometry, transfected Expi293 cells
[2] = target: human CD28 (full-length, expressed on transfected Expi293F cells) (human) (UniProt P10747); assay: flow cytometry; ratio to WT parental stack
[3] = target: human PD-L1 (full-length, expressed on transfected Expi293F cells) (human) (UniProt Q9NZQ7); assay: flow cytometry, transfected Expi293 cells
[4] = target: human PD-L1, full-length, expressed on Expi293F cells (human) (UniProt Q9NZQ7); assay: flow cytometry, Expi293 cells expressing human PD-L1
[5] = target: human PD-L1 (full-length, expressed on transfected Expi293F cells) (human) (UniProt Q9NZQ7); assay: flow cytometry; ratio to WT parental stack
[6] = target: human CTLA4, full-length, expressed on Expi293F cells (human) (UniProt P16410); assay: flow cytometry, Expi293 cells expressing human CTLA-4
Sequence of UniProt P16410 (P16410 36-223): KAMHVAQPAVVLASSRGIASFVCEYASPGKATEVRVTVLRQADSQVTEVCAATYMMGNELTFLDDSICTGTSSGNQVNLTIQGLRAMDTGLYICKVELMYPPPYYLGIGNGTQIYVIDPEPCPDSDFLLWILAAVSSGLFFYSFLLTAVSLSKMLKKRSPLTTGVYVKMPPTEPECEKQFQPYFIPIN

[7] = target: human CD28 (full-length, expressed on transfected Expi293F cells) (human) (UniProt P10747); assay: flow cytometry; ratio to WT ICOSL ECD-Fc

In the case of “CD80 I67T/L70Q/A91G/T120S / CD80 E88D/K89R/D90K/A91G/F92Y/K93R stacked IgV-Fc (Fc fusion)”, the MFI [1] is reported as 938 MFI and the WT parental MFI ratio [2] is reported as 0.57.

In the case of “CD80 WT / CD80 WT stacked IgV-Fc (Fc fusion)”, the MFI [1] is reported as 1630 MFI.

“CD80 WT / CD86 WT stacked IgV-Fc (Fc fusion)” showed an MFI [3] of 2080 MFI.

Molecule “CD80 WT / ICOSL WT stacked IgV-Fc (Fc fusion)” has an MFI [1] of 1230 MFI and an MFI [3] of 2660 MFI.

CD80 variant A91G/S103P ECD-Fc fusion was tested, and the MFI [4] was 9 MFI and the MFI parental ratio (fold of WT CD80) [4] was 0.13.

For “CD86 Q35H/H90L/Q102H / CD80 A12T/H18L/N43V/F59L/E77K/P109S/I118T stacked IgV-Fc (Fc fusion)”, the MFI [3] was 2110 MFI and the WT parental MFI ratio [5] was 1.39.

“ICOSL WT / CD80 WT stacked IgV-Fc (Fc fusion)” gave an MFI [3] of 2970 MFI.

Work on “ICOSL WT / Nkp30 WT stacked IgV-Fc (Fc fusion)” yielded an MFI [1] of 7920 MFI.

Molecule “NKp30 WT / CD86 WT stacked IgV-Fc (Fc fusion)” has an MFI [1] of 1690 MFI.

With “NKp30 WT / ICOSL WT stacked IgV-Fc (Fc fusion)” the MFI [1] was 6340 MFI.

B1: CD80 variant L70Q/A91G/T110A/T120S/T130A ECD-Fc fusion (Fc fusion)
chain: VIHVTKEVKEVATLSCGHNVSVEELAQTRIYWQKEKKMVLTMMSGDMNIWPEYKNRTIFDITNNLSIVIQALRPSDEGTYECVVLKYEKDGFKREHLAEVTLSVKADFPAPSISDFEIPSSNIRRIICSASGGFPEPHLSWLENGEELNAINTTVSQDPETELYAVSSKLDFNMTTNHSFMCLIKYGHLRVNQTFNWNTTKQEHFPDNAAAEPKSSDKTHTCPPCPAPELLGGPSVFLFPPKPKDTLMISRTPEVTCVVVDVSHEDPEVKFNWYVDGVEVHNAKTKPCEEQYGSTYRCVSVLTVLHQDWLNGKEYKCKVSNKALPAPIEKTISKAKGQPREPQVYTLPPSREEMTKNQVSLTCLVKGFYPSDIAVEWESNGQPENNYKTTPPVLDSDGSFFLYSKLTVDKSRWQQGNVFSCSVMHEALHNHYTQKSLSLSPGK
Molecule B1 has an MFI [6] of 14 MFI and an MFI parental ratio (fold of WT CD80) [6] of 0.07.

B2: CD80 variant V20L/L70Q/A91S/T120S/T130A ECD-Fc fusion (Fc fusion)
chain: B1 chain with V20L, G91S, A110T
Molecule B2 has an MFI [4] of 9 MFI and an MFI parental ratio (fold of WT CD80) [4] of 0.13.

B3: ICOSL variant ECD-Fc F120S/Y152H/N201S (Fc fusion)
chain: DTQEKEVRAMVGSDVELSCACPEGSRFDLNDVYVYWQTSESKTVVTYHIPQNSSLENVDSRYRNRALMSPAGMLRGDFSLRLFNVTPQDEQKFHCLVLSQSLGFQEVLSVEVTLHVAANSSVPVVSAPHSPSQDELTFTCTSINGYPRPNVHWINKTDNSLLDQALQNDTVFLNMRGLYDVVSVLRIARTPSVNIGCCIESVLLQQNLTVGSQTGNDIGERDKITENPVSTGEKNAATAAAEPKSSDKTHTCPPCPAPELLGGPSVFLFPPKPKDTLMISRTPEVTCVVVDVSHEDPEVKFNWYVDGVEVHNAKTKPCEEQYGSTYRCVSVLTVLHQDWLNGKEYKCKVSNKALPAPIEKTISKAKGQPREPQVYTLPPSREEMTKNQVSLTCLVKGFYPSDIAVEWESNGQPENNYKTTPPVLDSDGSFFLYSKLTVDKSRWQQGNVFSCSVMHEALHNHYTQKSLSLSPGK
With B3 the MFI parental ratio [7] was 0.89.
